Measurements reported in US20180009871A1 (INTARCIA THERAPEUTICS, published 2018).
Where no end group is shown, it is not given here. [ ]: non-standard residue; d: D form. Aib = CC(C)(N)C(=O)O

B1: Compound A50 (peptide)
peptide: YSHGTFTSDYSKYLD[Aib]KRAQEFV[Aib]WLEDEKRNKPPPS-OH
modifications: N-terminus assumed
SMILES: CC(C)C[C@H](NC(=O)[C@H](Cc1ccc(O)cc1)NC(=O)[C@H](CCCCN)NC(=O)[C@H](CO)NC(=O)[C@H](Cc1ccc(O)cc1)NC(=O)[C@H](CC(=O)O)NC(=O)[C@H](CO)NC(=O)[C@@H](NC(=O)[C@H](Cc1ccccc1)NC(=O)[C@@H](NC(=O)CNC(=O)[C@H](Cc1c[nH]cn1)NC(=O)[C@H](CO)NC(=O)[C@@H](N)Cc1ccc(O)cc1)[C@@H](C)O)[C@@H](C)O)C(=O)N[C@@H](CC(=O)O)C(=O)NC(C)(C)C(=O)N[C@@H](CCCCN)C(=O)N[C@@H](CCCNC(=N)N)C(=O)N[C@@H](C)C(=O)N[C@@H](CCC(N)=O)C(=O)N[C@@H](CCC(=O)O)C(=O)N[C@@H](Cc1ccccc1)C(=O)N[C@H](C(=O)NC(C)(C)C(=O)N[C@@H](Cc1c[nH]c2ccccc12)C(=O)N[C@@H](CC(C)C)C(=O)N[C@@H](CCC(=O)O)C(=O)N[C@@H](CC(=O)O)C(=O)N[C@@H](CCC(=O)O)C(=O)N[C@@H](CCCCN)C(=O)N[C@@H](CCCNC(=N)N)C(=O)N[C@@H](CC(N)=O)C(=O)N[C@@H](CCCCN)C(=O)N1CCC[C@H]1C(=O)N1CCC[C@H]1C(=O)N1CCC[C@H]1C(=O)N[C@@H](CO)C(=O)O)C(C)C
B2: Compound A48 (peptide)
peptide: YSHGTFTSDYSKYLD[Aib]KRAQEFV[Aib]WLEDEKRNKNPPPS-OH
modifications: N-terminus assumed
SMILES: CC(C)C[C@H](NC(=O)[C@H](Cc1ccc(O)cc1)NC(=O)[C@H](CCCCN)NC(=O)[C@H](CO)NC(=O)[C@H](Cc1ccc(O)cc1)NC(=O)[C@H](CC(=O)O)NC(=O)[C@H](CO)NC(=O)[C@@H](NC(=O)[C@H](Cc1ccccc1)NC(=O)[C@@H](NC(=O)CNC(=O)[C@H](Cc1c[nH]cn1)NC(=O)[C@H](CO)NC(=O)[C@@H](N)Cc1ccc(O)cc1)[C@@H](C)O)[C@@H](C)O)C(=O)N[C@@H](CC(=O)O)C(=O)NC(C)(C)C(=O)N[C@@H](CCCCN)C(=O)N[C@@H](CCCNC(=N)N)C(=O)N[C@@H](C)C(=O)N[C@@H](CCC(N)=O)C(=O)N[C@@H](CCC(=O)O)C(=O)N[C@@H](Cc1ccccc1)C(=O)N[C@H](C(=O)NC(C)(C)C(=O)N[C@@H](Cc1c[nH]c2ccccc12)C(=O)N[C@@H](CC(C)C)C(=O)N[C@@H](CCC(=O)O)C(=O)N[C@@H](CC(=O)O)C(=O)N[C@@H](CCC(=O)O)C(=O)N[C@@H](CCCCN)C(=O)N[C@@H](CCCNC(=N)N)C(=O)N[C@@H](CC(N)=O)C(=O)N[C@@H](CCCCN)C(=O)N[C@@H](CC(N)=O)C(=O)N1CCC[C@H]1C(=O)N1CCC[C@H]1C(=O)N1CCC[C@H]1C(=O)N[C@@H](CO)C(=O)O)C(C)C
B3: Compound A52 (peptide)
peptide: YSHGTFTSDYSKYLDIKRAQEFV[Aib]WLEDEPSSGAPPPS-OH
modifications: N-terminus assumed
SMILES: CC[C@H](C)[C@H](NC(=O)[C@H](CC(=O)O)NC(=O)[C@H](CC(C)C)NC(=O)[C@H](Cc1ccc(O)cc1)NC(=O)[C@H](CCCCN)NC(=O)[C@H](CO)NC(=O)[C@H](Cc1ccc(O)cc1)NC(=O)[C@H](CC(=O)O)NC(=O)[C@H](CO)NC(=O)[C@@H](NC(=O)[C@H](Cc1ccccc1)NC(=O)[C@@H](NC(=O)CNC(=O)[C@H](Cc1c[nH]cn1)NC(=O)[C@H](CO)NC(=O)[C@@H](N)Cc1ccc(O)cc1)[C@@H](C)O)[C@@H](C)O)C(=O)N[C@@H](CCCCN)C(=O)N[C@@H](CCCNC(=N)N)C(=O)N[C@@H](C)C(=O)N[C@@H](CCC(N)=O)C(=O)N[C@@H](CCC(=O)O)C(=O)N[C@@H](Cc1ccccc1)C(=O)N[C@H](C(=O)NC(C)(C)C(=O)N[C@@H](Cc1c[nH]c2ccccc12)C(=O)N[C@@H](CC(C)C)C(=O)N[C@@H](CCC(=O)O)C(=O)N[C@@H](CC(=O)O)C(=O)N[C@@H](CCC(=O)O)C(=O)N1CCC[C@H]1C(=O)N[C@@H](CO)C(=O)N[C@@H](CO)C(=O)NCC(=O)N[C@@H](C)C(=O)N1CCC[C@H]1C(=O)N1CCC[C@H]1C(=O)N1CCC[C@H]1C(=O)N[C@@H](CO)C(=O)O)C(C)C
B4: Compound A47 (peptide)
peptide: YSHGTFTSDYSKYLD[Aib]KRAQEFV[Aib]WLEDEKRNKNPPS-OH
modifications: N-terminus assumed
SMILES: CC(C)C[C@H](NC(=O)[C@H](Cc1ccc(O)cc1)NC(=O)[C@H](CCCCN)NC(=O)[C@H](CO)NC(=O)[C@H](Cc1ccc(O)cc1)NC(=O)[C@H](CC(=O)O)NC(=O)[C@H](CO)NC(=O)[C@@H](NC(=O)[C@H](Cc1ccccc1)NC(=O)[C@@H](NC(=O)CNC(=O)[C@H](Cc1c[nH]cn1)NC(=O)[C@H](CO)NC(=O)[C@@H](N)Cc1ccc(O)cc1)[C@@H](C)O)[C@@H](C)O)C(=O)N[C@@H](CC(=O)O)C(=O)NC(C)(C)C(=O)N[C@@H](CCCCN)C(=O)N[C@@H](CCCNC(=N)N)C(=O)N[C@@H](C)C(=O)N[C@@H](CCC(N)=O)C(=O)N[C@@H](CCC(=O)O)C(=O)N[C@@H](Cc1ccccc1)C(=O)N[C@H](C(=O)NC(C)(C)C(=O)N[C@@H](Cc1c[nH]c2ccccc12)C(=O)N[C@@H](CC(C)C)C(=O)N[C@@H](CCC(=O)O)C(=O)N[C@@H](CC(=O)O)C(=O)N[C@@H](CCC(=O)O)C(=O)N[C@@H](CCCCN)C(=O)N[C@@H](CCCNC(=N)N)C(=O)N[C@@H](CC(N)=O)C(=O)N[C@@H](CCCCN)C(=O)N[C@@H](CC(N)=O)C(=O)N1CCC[C@H]1C(=O)N1CCC[C@H]1C(=O)N[C@@H](CO)C(=O)O)C(C)C
B5: Compound A49 (peptide)
peptide: YSHGTFTSDYSKYLD[Aib]KRAQEFV[Aib]WLEDEPRNKNNPPS-OH
modifications: N-terminus assumed
SMILES: CC(C)C[C@H](NC(=O)[C@H](Cc1ccc(O)cc1)NC(=O)[C@H](CCCCN)NC(=O)[C@H](CO)NC(=O)[C@H](Cc1ccc(O)cc1)NC(=O)[C@H](CC(=O)O)NC(=O)[C@H](CO)NC(=O)[C@@H](NC(=O)[C@H](Cc1ccccc1)NC(=O)[C@@H](NC(=O)CNC(=O)[C@H](Cc1c[nH]cn1)NC(=O)[C@H](CO)NC(=O)[C@@H](N)Cc1ccc(O)cc1)[C@@H](C)O)[C@@H](C)O)C(=O)N[C@@H](CC(=O)O)C(=O)NC(C)(C)C(=O)N[C@@H](CCCCN)C(=O)N[C@@H](CCCNC(=N)N)C(=O)N[C@@H](C)C(=O)N[C@@H](CCC(N)=O)C(=O)N[C@@H](CCC(=O)O)C(=O)N[C@@H](Cc1ccccc1)C(=O)N[C@H](C(=O)NC(C)(C)C(=O)N[C@@H](Cc1c[nH]c2ccccc12)C(=O)N[C@@H](CC(C)C)C(=O)N[C@@H](CCC(=O)O)C(=O)N[C@@H](CC(=O)O)C(=O)N[C@@H](CCC(=O)O)C(=O)N1CCC[C@H]1C(=O)N[C@@H](CCCNC(=N)N)C(=O)N[C@@H](CC(N)=O)C(=O)N[C@@H](CCCCN)C(=O)N[C@@H](CC(N)=O)C(=O)N[C@@H](CC(N)=O)C(=O)N1CCC[C@H]1C(=O)N1CCC[C@H]1C(=O)N[C@@H](CO)C(=O)O)C(C)C
B6: Compound A53 (peptide)
peptide: YSHGTFTSDYSKYLD[Aib]KRAQEFVLWLEDEPSSGAPPPS-OH
modifications: N-terminus assumed
SMILES: CC(C)C[C@H](NC(=O)[C@H](Cc1c[nH]c2ccccc12)NC(=O)[C@H](CC(C)C)NC(=O)[C@@H](NC(=O)[C@H](Cc1ccccc1)NC(=O)[C@H](CCC(=O)O)NC(=O)[C@H](CCC(N)=O)NC(=O)[C@H](C)NC(=O)[C@H](CCCNC(=N)N)NC(=O)[C@H](CCCCN)NC(=O)C(C)(C)NC(=O)[C@H](CC(=O)O)NC(=O)[C@H](CC(C)C)NC(=O)[C@H](Cc1ccc(O)cc1)NC(=O)[C@H](CCCCN)NC(=O)[C@H](CO)NC(=O)[C@H](Cc1ccc(O)cc1)NC(=O)[C@H](CC(=O)O)NC(=O)[C@H](CO)NC(=O)[C@@H](NC(=O)[C@H](Cc1ccccc1)NC(=O)[C@@H](NC(=O)CNC(=O)[C@H](Cc1c[nH]cn1)NC(=O)[C@H](CO)NC(=O)[C@@H](N)Cc1ccc(O)cc1)[C@@H](C)O)[C@@H](C)O)C(C)C)C(=O)N[C@@H](CCC(=O)O)C(=O)N[C@@H](CC(=O)O)C(=O)N[C@@H](CCC(=O)O)C(=O)N1CCC[C@H]1C(=O)N[C@@H](CO)C(=O)N[C@@H](CO)C(=O)NCC(=O)N[C@@H](C)C(=O)N1CCC[C@H]1C(=O)N1CCC[C@H]1C(=O)N1CCC[C@H]1C(=O)N[C@@H](CO)C(=O)O
B7: Compound A51 (peptide)
peptide: YSHGTFTSDYSKYLDLKRAQEFV[Aib]WLEDEPSSGAPPPS-OH
modifications: N-terminus assumed
SMILES: CC(C)C[C@H](NC(=O)[C@H](CC(=O)O)NC(=O)[C@H](CC(C)C)NC(=O)[C@H](Cc1ccc(O)cc1)NC(=O)[C@H](CCCCN)NC(=O)[C@H](CO)NC(=O)[C@H](Cc1ccc(O)cc1)NC(=O)[C@H](CC(=O)O)NC(=O)[C@H](CO)NC(=O)[C@@H](NC(=O)[C@H](Cc1ccccc1)NC(=O)[C@@H](NC(=O)CNC(=O)[C@H](Cc1c[nH]cn1)NC(=O)[C@H](CO)NC(=O)[C@@H](N)Cc1ccc(O)cc1)[C@@H](C)O)[C@@H](C)O)C(=O)N[C@@H](CCCCN)C(=O)N[C@@H](CCCNC(=N)N)C(=O)N[C@@H](C)C(=O)N[C@@H](CCC(N)=O)C(=O)N[C@@H](CCC(=O)O)C(=O)N[C@@H](Cc1ccccc1)C(=O)N[C@H](C(=O)NC(C)(C)C(=O)N[C@@H](Cc1c[nH]c2ccccc12)C(=O)N[C@@H](CC(C)C)C(=O)N[C@@H](CCC(=O)O)C(=O)N[C@@H](CC(=O)O)C(=O)N[C@@H](CCC(=O)O)C(=O)N1CCC[C@H]1C(=O)N[C@@H](CO)C(=O)N[C@@H](CO)C(=O)NCC(=O)N[C@@H](C)C(=O)N1CCC[C@H]1C(=O)N1CCC[C@H]1C(=O)N1CCC[C@H]1C(=O)N[C@@H](CO)C(=O)O)C(C)C

Molecular target: human glucagon receptor (GCGR) (human, UniProt P47871 26-477)
Experiment: cell-based or functional assay

| Binder | hGCGR pEC50 (cAMP) [pEC50] |
| --- | --- |
| B1 | 11.5 |
| B2 | 12.9 |
| B3 | 12.4 |
| B4 | 11.5 |
| B5 | 12.4 |
| B6 | 11.6 |
| B7 | 12.3 |

Molecular target: human GLP-1 receptor (GLP-1R) (human, UniProt P43220 24-463)
Experiment: cell-based or functional assay

human GLP-1 receptor (GLP-1R), sequence (P43220 24-463): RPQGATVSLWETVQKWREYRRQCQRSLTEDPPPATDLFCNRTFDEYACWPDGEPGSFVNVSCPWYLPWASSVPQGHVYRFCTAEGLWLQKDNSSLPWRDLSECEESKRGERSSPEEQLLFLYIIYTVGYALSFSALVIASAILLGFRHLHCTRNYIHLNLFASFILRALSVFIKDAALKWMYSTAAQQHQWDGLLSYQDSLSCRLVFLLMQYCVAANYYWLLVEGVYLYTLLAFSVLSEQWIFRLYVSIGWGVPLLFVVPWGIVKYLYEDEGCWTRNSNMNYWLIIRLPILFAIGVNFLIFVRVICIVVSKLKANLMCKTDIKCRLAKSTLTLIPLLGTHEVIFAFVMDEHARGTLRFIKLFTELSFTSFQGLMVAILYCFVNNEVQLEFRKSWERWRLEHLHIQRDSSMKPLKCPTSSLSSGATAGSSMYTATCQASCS

| Binder | hGLP1 pEC50 (cAMP) [pEC50] |
| --- | --- |
| B1 | < 9 |
| B2 | < 9 |
| B3 | < 9 |
| B4 | < 9 |
| B5 | < 9 |
| B6 | < 9 |
| B7 | < 9 |
